According to doi:10.1101/781070 (bioRxiv, 2019):

Target: the molecule itself
Test: crystal structure

B1: Drosophila melanogaster Noppera-bo (DmNobo), wild type (enzyme)
chain: MSQPKPILYYDERSPPVRSCLMLIKLLDIDVELRFVNLFKGEQFQKDFLALNPQHSVPTLVHGDLVLTDSHAILIHLAEKFDEGGSLWPQEHAERMKVLNLLLFECSFLFRRDSDFMSATVRQGFANVDVAHHERKLTEAYIIMERYLENSDFMAGPQLTLADLSIVTTLSTVNLMFPLSQFPRLRRWFTAMQQLDAYEANCSGLEKLRQTMESVGSFQFPSSSAVVTEKVE
stoichiometry N: 2
